Source: patent publication US20050287132A1, “Biliverdin reductase fragments and variants, and methods of using biliverdin reductase and such fragments and variants” (University of Rochester, priority 1999, published 2005)

Tests used:
[1] = Biliverdin reductase activity of E. coli expressed hBVR wild type and mutants (Example 1); format: biochemical, human
Method: SalI linkers are underlined in each primer. The products were digested with SalI and cloned into the vector pGEX 4T-2. Orientation was determined by restriction analysis and confirmed by sequencing. The ligation places the BVR coding region in frame with the GST protein of the vector. GST-BVR fusion proteins were purified from bacterial clones containing the plasmid, and grown overnight using a glutathione-sepharose 4B column (Pharmacia). The reductase portion of the fusion protein was released by thrombin protease treatment.
Activity was determined as previously described (Kutty et al., J. Biol. Chem. 256:3956-3962 (1981); Huang et al., J. Biol. Chem. 264:7844-7849 (1989), which are hereby incorporated by reference). Activity was determined in a 1 ml assay volume that contained 0.1 M Tris/HCl, pH 8.7 NADPH (100 μM), and biliverdin (5 μM). Reductase activity was also measured using NADH (1 mM) as the cofactor; in this case 0.1 M potassium phosphate pH 6.75, was substituted for Tris/HCl. SDS/PAGE was performed by the method of Laemmli, Nature 227:680-685 (1970), which is hereby incorporated by reference. Western blot analysis was performed using anti-serum to human kidney biliverdin reductase as previously described (Maines et al., Arch. Biochem. Biophys. 300:320-326 (1993), which is hereby incorporated by reference). The relative amounts of immunoreactive protein were determined by scanning the blot using a laser densitometer and comparing the area under the peak for each mutant with the wild type. The rate of activity was measured as the increase in 450 nm absorbance at 25° C. Specific activity is expressed as nmol bilirubin/min/ mg protein.

[2] = Biliverdin reductase catalytic activity of recombinant wild type and mutant hBVR (Example 2, FIG. 3); format: biochemical, human
Method: FIGS. 3A-C are graphs depicting the effects of mutation of Gly^17, Ser^149, and Lys^296 on BVR catalytic activity. Purified preparations of recombinant wild type and mutant BVR with substitution of Gly^17 (FIG. 3A), Ser^149 (FIG. 3B), or Lys^296 (FIG. 3C) with Ala were assessed for BVR activity at pH 6.5 using NADH as cofactor and at pH 8.7 with NADPH as cofactor. Values presented are in percent wild type activity for each pH. The specific activity of the wild type preparation was 1744 nmol bilirubin produced min^−1 mg^−1 at pH 6.5 and 1147 nmol bilirubin produced min^−1 mg^−1 at pH 8.7. Values presented are representative of 2-4 determinations.
GST-BVR fusion proteins were prepared as described in Example 1. Human kidney biliverdin reductase was purified to homogeneity as described by Maines et al., Arch. Biochem. Biophys. 300:320-326 (1993), which is hereby incorporated by reference. The purified reductase preparations were judged to be homogenous by SDS-PAGE. Protein concentration was determined by the method of Bradford, Anal. Biochem. 72:248-254 (1976), which is hereby incorporated by reference.
Activity was determined as previously described by Huang et al., J. Biol. Chem. 264:7844-7849 (1989), which is hereby incorporated by reference, using NADPH as the cofactor at pH 8.7 in 0.1 M […] or NADH at pH 6.5 in […]. The rate of activity was measured as the increase in 450 nm absorbance at 25° C. Specific activity is expressed in units/mg protein, where 1 unit catalyzes the formation of 1 nmol bilirubin/min.

HeLa cells = experiment: Nuclear translocation of hemagglutinin-tagged BVR constructs after 8-bromo-cGMP, immunofluorescence; format: cell-based, human; settings: 500 μM 8-bromo-cGMP, 5 min (up to 60 min)
Method: HeLa cells were grown on glass cover slips in DMEM medium containing 10% FBS under an atmosphere of 5% CO2. Cells were transfected with different BVR constructs using Lipofectamine, as described by the manufacturer. Briefly, cells were treated with a mixture of 2 μg DNA and 20 μl Lipofectamine for 5 h followed by the addition of DMEM medium. After 48 h, cells were treated with 500 μM 8-bromo-cGMP for 5, 20 or 60 min, fixed with 4% paraformaldehyde for 10 min. Cells were then rinsed with phosphate-buffered saline, incubated with 5% goat serum to block nonspecific binding sites and then with monoclonal anti hemagglutinin primary antibody and FITC conjugated secondary antibody. Cells were visualized by direct fluorescence microscopy.

biliverdin reductase = experiment: Phosphorylation state of hBVR, SDS-PAGE immunoblot with anti-phospho antibodies; format: biochemical, human; settings: protein purified from human kidney, anti-phospho mix
Method: Purified protein was subjected to 12.5% SDS-PAGE and the protein transferred to PVDF membrane. The membrane was subsequently treated as for Western blotting, using anti-phosphoserine, anti-phosphotyrosine or anti-phosphothreonine, at 2 μg/ml, or a mixture of all three antibodies as the primary antibody. The secondary antibody was goat anti-rabbit horseradish peroxidase at a 1:1000 dilution and detection was carried out using the ECL reagent kit (NEN Life Sciences) according to the manufacturer's instructions.

B1: wild type: wild type human biliverdin reductase, SEQ. ID. No. 1; E. coli expressed or purified from human kidney (protein, listed as Homo sapiens)
chain: MNAEPERKFGVVVVGVGRAGSVRMRDLRNPHPSSAFLNLIGFVSRRELGSIDGVQQISLEDALSSQEVEVAYICSESSSHEDYIRQFLNAGKHVLVEYPMTLSLAAAQELWELAEQKGKVLHEEHVELLMEEFAFLKKEVVGKDLLKGSLLFTSDPLEEDRFGFPAFSGISRLTWLVSLFGELSLVSATLEERKEDQYMKMTVCLETEKKSPLSWIEEKGPGLKRNRYLSFHFKSGSLENVPNVGVNKNIFLKDQNIFVQKLLGQFSEKELAAEKKRILHCLGLAEEIQKYCCSRK
In the case of B1, the “Activity % pH 6.7 + NADH” value ([1]; Cys→Ala mutations, wild type = 100, pH 6.7, NADH) is reported as 100%, the “Activity % pH 8.7 + NADPH” value ([1]; Cys→Ala mutations, wild type = 100, pH 8.7, NADPH) is reported as 100% and the “Activity (nmol bilirubin/min/mg) pH 6.7 + NADH” value ([1]; pH 6.7, NADH cofactor, 25°) is reported as 2830 nmol bilirubin/min/mg. The “Activity (nmol bilirubin/min/mg) pH 8.7 + NADPH” value ([1]; pH 8.7, NADPH cofactor, 25°) was 1338 nmol bilirubin/min/mg, the specific activity ([2]; pH 6.5, NADH) was 1744 nmol bilirubin produced min^−1 mg^−1 and the specific activity ([2]; pH 8.7, NADPH) was 1147 nmol bilirubin produced min^−1 mg^−1. The “nuclear localization in response to 8-bromo-cGMP” value (HeLa cells) was “strong punctate staining associated with the nucleus” and the phosphorylation state (biliverdin reductase) was “phosphoprotein”.
